System: Escherichia coli TOP10
Test: shrunken log2 fold change of peptide-encoding DNA abundance (4.5 h post-induction vs induction); higher = less antimicrobial activity (less host growth inhibition)
Conditions: time post-induction: 4.5 h; library: site-saturation at positions 5, 18, 19, 20
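Note: peptides expressed intracellularly from a pBAD plasmid library in pooled LB shake-flask culture, induced with 0.3% L-arabinose, DNA abundance read by NGS, three biological replicates, DESeq2 with apeglm shrinkage.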

Sequence	shrunken log2 fold change
RRIRWRPPRLPRPRPRPNANPRP	0.109
RRIRMRPPRLPRPRPRPGFNPRP	-0.106
RRIRCRPPRLPRPRPRPSFFPRP	-0.552
RRIRNRPPRLPRPRPRPVDKPRP	0.0215
RRIRQRPPRLPRPRPRPLRKPRP	0.356
RRIRTRPPRLPRPRPRPGMFPRP	-0.397
RRIRPRPPRLPRPRPRPRDMPRP	0.201
RRIRFRPPRLPRPRPRPFEMPRP	-0.0734
RRIRCRPPRLPRPRPRPDVYPRP	0.0165
RRIRLRPPRLPRPRPRPGQKPRP	-0.00989
RRIRKRPPRLPRPRPRPMVGPRP	0.0659
RRIRARPPRLPRPRPRPNFDPRP	0.281
RRIRYRPPRLPRPRPRPQTDPRP	-0.274
RRIRARPPRLPRPRPRPLPWPRP	0.51
RRIRVRPPRLPRPRPRPSFTPRP	-0.301
RRIRNRPPRLPRPRPRPVSMPRP	-0.0312
RRIRIRPPRLPRPRPRPIQEPRP	0.0527
RRIRIRPPRLPRPRPRPQHHPRP	-0.875
RRIRLRPPRLPRPRPRPLDVPRP	-0.205
RRIRGRPPRLPRPRPRPHYYPRP	-0.119
RRIRKRPPRLPRPRPRPQKFPRP	0.0144
RRIRQRPPRLPRPRPRPWMCPRP	0.00702

Sequence	shrunken log2 fold change
RRIRIRPPRLPRPRPRPAEWPRP	-0.124
RRIRPRPPRLPRPRPRPWAIPRP	-0.0391
RRIRHRPPRLPRPRPRPQHCPRP	-0.503
RRIRNRPPRLPRPRPRPRKKPRP	0.163
RRIRYRPPRLPRPRPRPEAHPRP	-0.281
RRIRHRPPRLPRPRPRPCVMPRP	-0.239
RRIRQRPPRLPRPRPRPNYMPRP	-0.226
RRIRIRPPRLPRPRPRPHMVPRP	-0.181
RRIRKRPPRLPRPRPRPMYTPRP	-0.0983
RRIRFRPPRLPRPRPRPLGYPRP	0.0222
RRIRLRPPRLPRPRPRPWDAPRP	0.135
RRIRTRPPRLPRPRPRPCQLPRP	-0.161
RRIRWRPPRLPRPRPRPGQFPRP	0.061
RRIRGRPPRLPRPRPRPDSQPRP	0.223
RRIRTRPPRLPRPRPRPHQGPRP	-0.0325
RRIRTRPPRLPRPRPRPPEQPRP	0.151
RRIRLRPPRLPRPRPRPNQMPRP	-0.437
RRIRWRPPRLPRPRPRPTDHPRP	-0.307
RRIRDRPPRLPRPRPRPDCSPRP	0.573
RRIRMRPPRLPRPRPRPMWIPRP	-0.217
RRIRVRPPRLPRPRPRPVYRPRP	0.132
RRIRRRPPRLPRPRPRPLYCPRP	-0.115

Sequence	shrunken log2 fold change
RRIRFRPPRLPRPRPRPQSAPRP	0.0283
RRIRVRPPRLPRPRPRPPLQPRP	0.272
RRIRSRPPRLPRPRPRPHKDPRP	-0.534
RRIRTRPPRLPRPRPRPESSPRP	-0.0341
RRIRHRPPRLPRPRPRPPMAPRP	0.197
RRIRCRPPRLPRPRPRPARMPRP	0.264
RRIRTRPPRLPRPRPRPWGDPRP	-0.273
RRIRVRPPRLPRPRPRPHRWPRP	0.0461
RRIRVRPPRLPRPRPRPHGKPRP	-0.389
RRIRSRPPRLPRPRPRPNRDPRP	-0.233
RRIRVRPPRLPRPRPRPFSQPRP	-0.0697
RRIRARPPRLPRPRPRPKWIPRP	0.0218
RRIRARPPRLPRPRPRPRPDPRP	0.819
RRIRRRPPRLPRPRPRPGLMPRP	0.342
RRIRSRPPRLPRPRPRPALCPRP	0.292
RRIRVRPPRLPRPRPRPNPGPRP	-0.131
RRIRERPPRLPRPRPRPRLYPRP	-0.448
RRIRCRPPRLPRPRPRPKFFPRP	0.0952
RRIRNRPPRLPRPRPRPNSKPRP	-0.331
RRIRRRPPRLPRPRPRPPPNPRP	0.951
RRIRKRPPRLPRPRPRPVMGPRP	0.155
RRIRARPPRLPRPRPRPKDSPRP	0.181

Sequence	shrunken log2 fold change
RRIRHRPPRLPRPRPRPLNYPRP	-0.289
RRIRSRPPRLPRPRPRPRYQPRP	-0.145
RRIRERPPRLPRPRPRPSIMPRP	-1.02
RRIRDRPPRLPRPRPRPSEPPRP	0.06
RRIRVRPPRLPRPRPRPQFCPRP	-0.17
RRIRKRPPRLPRPRPRPFDTPRP	-0.0262
RRIRNRPPRLPRPRPRPYFIPRP	-0.645
RRIRSRPPRLPRPRPRPAPNPRP	0.329
RRIRTRPPRLPRPRPRPWGEPRP	0.183
RRIRPRPPRLPRPRPRPCTRPRP	2.07
RRIRNRPPRLPRPRPRPHLMPRP	-0.584
RRIRHRPPRLPRPRPRPQVVPRP	-0.101
RRIRHRPPRLPRPRPRPGGGPRP	0.684
RRIRTRPPRLPRPRPRPWMQPRP	-0.0757
RRIRGRPPRLPRPRPRPRFCPRP	0.569
RRIRYRPPRLPRPRPRPFMPPRP	-0.323
RRIRCRPPRLPRPRPRPTHRPRP	0.426
RRIRARPPRLPRPRPRPQRNPRP	-0.0146
RRIRPRPPRLPRPRPRPKFNPRP	-0.404
RRIRERPPRLPRPRPRPQTPPRP	0.0694
RRIRIRPPRLPRPRPRPVWLPRP	0.0726
RRIRRRPPRLPRPRPRPKMLPRP	0.161

Sequence	shrunken log2 fold change
RRIRNRPPRLPRPRPRPMSLPRP	-0.0381
RRIRIRPPRLPRPRPRPWSNPRP	-0.0121
RRIRDRPPRLPRPRPRPGATPRP	1.01
RRIRHRPPRLPRPRPRPRHHPRP	-0.0639
RRIRQRPPRLPRPRPRPRIMPRP	-0.0396
RRIRFRPPRLPRPRPRPNGWPRP	0.0579
RRIRLRPPRLPRPRPRPSEGPRP	-0.501
RRIRGRPPRLPRPRPRPKQIPRP	0.335
RRIRFRPPRLPRPRPRPGNCPRP	0.0888
RRIRDRPPRLPRPRPRPWNIPRP	0.0629
RRIRYRPPRLPRPRPRPKVWPRP	0.221
RRIRWRPPRLPRPRPRPGYRPRP	0.0673
RRIRNRPPRLPRPRPRPNECPRP	-0.124
RRIRVRPPRLPRPRPRPRQIPRP	0.0436
RRIRDRPPRLPRPRPRPLWEPRP	0.0751
RRIRSRPPRLPRPRPRPFKIPRP	-0.466
RRIRPRPPRLPRPRPRPDCCPRP	-0.0125
RRIRFRPPRLPRPRPRPDGPPRP	0.0689
RRIRDRPPRLPRPRPRPDMRPRP	0.0382
RRIRMRPPRLPRPRPRPTGQPRP	0.636
RRIRTRPPRLPRPRPRPVGQPRP	0.00905

— the supplement of paper PMC9112550, “Optimization of the antimicrobial peptide Bac7 by deep mutational scanning” (BMC Biology, 2022)
